In patent US20230218743A1 (IMMUNITYBIO, published 2023):
Where two headings read alike, the source gives them in different places.

Legend:
[1] = biological target: SARS-CoV-2 Spike protein on live SARS-CoV-2 (SARS-CoV-2, UniProt P0DTC2 14-1273); assay: cell-based or functional assay
RBD-SD1 [2] = biological target: T1, RBD-SD1 (SARS-CoV-2, UniProt P0DTC2 319-591)
RBD-SD1 [3] = biological target: T1, RBD-SD1; assay: Octet, IgG1 on AHC biosensor
[4] = biological target: T2, SARS-CoV-2 Spike receptor binding domain, wild-type (SARS-CoV-2, UniProt P0DTC2 319-541); assay: Octet, IgG1 on AHC biosensor
T2 construct: domain: RBD

RBD-SD1 [5] = biological target: T1, RBD-SD1; remark: listed apart in the source
RBD-SD1 [6] = biological target: T1, RBD-SD1; assay: epitope analysis, FIG. 4B
RBD-SD1 [7] = biological target: T1, RBD-SD1; remark: listed apart in the source

Row | Binder | live SARS-CoV-2 neutralization IC50 [1] [µg/mL] | binding result (RBD-SD1 [3]) | binding result [4] | further results
1 | N-612-004 (antibody, V domains shown) VH: EVQLVESGGGLVQPGGSLRLSCAASGFTFSSYYMHWVRQAPGKGLEWVSAISGSGGYTYYADSVKGRFTISRDNSKNTLYLQMNSLRAEDTAVYYCARDRDHAYDWGFDVWGQGTLVTVSS VL: DIQMTQSPSSLSASVGDRVTITCQASQDISNYLNWYQQKPGKAPKLLIYDASNLETGVPSRFSGSGSGTDFTFTISSLQPEDIATYYCQQWADWPLTFGQGTKVEIK | 0.194 | – | – | –
2 | 612-056 (scFv, V domains shown) VH: not shown VL: DIQMTQSPSSLSASVGDRVTITCQASQDISNYLNWYQQKPGKAPKLLIYDASNLETGVPSRFSGSGSGTDFTFTISSLQPEDIATYYCQQDAGTPLTFGQGTKVEIK | – | – | – | Kd (RBD-SD1 [2]): 4.77 nM
3 | N-612-056 (antibody, V domains shown) VH: not shown VL: DIQMTQSPSSLSASVGDRVTITCQASQDISNYLNWYQQKPGKAPKLLIYDASNLETGVPSRFSGSGSGTDFTFTISSLQPEDIATYYCQQDAGTPLTFGQGTKVEIK | 0.855 | – | – | –
4 | N-612-014 (antibody, V domains shown) VH: EVQLVESGGGLVQPGGSLRLSCAASGFTFSSYAMTWVRQAPGKGLEWVSYISGSGGGTYYADSVKGRFTISRDNSKNTLYLQMNSLRAEDTAVYYCARDRWASGWLAFDVWGQGTLVTVSS VL: not shown | 0.00791 | no binding (tested: 2x dilution series starting at 100 nM) | no binding (tested: 2x dilution series starting at 100 nM) | –
5 | N-612-002 (antibody, V domains shown) VH: EVQLVESGGGLVQPGGSLRLSCAASGFTFSSYTMHWVRQAPGKGLEWVSAISGSGGSTYYADSVKGRFTISRDNSKNTLYLQMNSLRAEDTAVYYCARDLFDFWGFDVWGQGTLVTVSS VL: not shown | – | no binding (tested: 2x dilution series starting at 100 nM) | no binding (tested: 2x dilution series starting at 100 nM) | –
6 | N-612-044 (antibody, V domains shown) VH: EVQLVESGGGLVQPGGSLRLSCAASGFTFSNYAMHWVRQAPGKGLEWVSAISGSGGSTYYADSVKGRFTISRDNSKNTLYLQMNSLRAEDTAVYYCARDLSFWLTYHLASAFDVWGQGTLVTVSS VL: not shown | – | no binding (tested: 2x dilution series starting at 100 nM) | no binding (tested: 2x dilution series starting at 100 nM) | –
7 | N-612-007 (antibody, V domains shown) VH: EVQLVESGGGLVQPGGSLRLSCAASGFTFSNYAMHWVRQAPGKGLEWVSAISGNGGSTGYADSVKGRFTISRDNSKNTLYLQMNSLRAEDTAVYYCARDRWYVKNAFDVWGQGTLVTVSS VL: not shown | 0.0452 | no binding (tested: 2x dilution series starting at 100 nM) | no binding (tested: 2x dilution series starting at 100 nM) | –
8 | N-612-017 (antibody, V domains shown) VH: EVQLVESGGGLVQPGGSLRLSCAASGFTFSSYAMHWVRQAPGKGLEWVSAIWGSGSNTYYADSVKGRFTISRDNSKNTLYLQMNSLRAEDTAVYYCARGRDLAAFTKTAFDVWGQGTLVTVSS VL: not shown | 0.0756 | – | – | Kd (RBD-SD1 [5]): 6.19 nM; koff (RBD-SD1 [5]): 0.00627 s⁻¹; kon (RBD-SD1 [5]): 1.01e+06 M⁻¹ s⁻¹; koff (RBD-SD1 [6]): 0.0019 s⁻¹
9 | 612-017 (scFv, V domains shown) VH: EVQLVESGGGLVQPGGSLRLSCAASGFTFSSYAMHWVRQAPGKGLEWVSAIWGSGSNTYYADSVKGRFTISRDNSKNTLYLQMNSLRAEDTAVYYCARGRDLAAFTKTAFDVWGQGTLVTVSS VL: not shown | – | – | – | Kd (RBD-SD1 [7]): 10.2 nM
